Tested on: Escherichia coli TOP10
Test: shrunken log2 fold change of peptide-encoding DNA abundance (4.5 h post-induction vs induction); higher = less antimicrobial activity (less host growth inhibition)
Conditions: time post-induction: 4.5 h; library: site-saturation at positions 5, 18, 19, 20
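Also: peptides expressed intracellularly from a pBAD plasmid library in pooled LB shake-flask culture, induced with 0.3% L-arabinose, DNA abundance read by NGS, three biological replicates, DESeq2 with apeglm shrinkage.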

Sequence: RRIRWRPPRLPRPRPRPKHSPRP
- shrunken log2 fold change: 0.0898

Sequence: RRIRFRPPRLPRPRPRPQSGPRP
- shrunken log2 fold change: -0.036

Sequence: RRIRTRPPRLPRPRPRPREIPRP
- shrunken log2 fold change: 0.00997

Sequence: RRIRERPPRLPRPRPRPTERPRP
- shrunken log2 fold change: 0.0425

Sequence: RRIRRRPPRLPRPRPRPDMAPRP
- shrunken log2 fold change: 0.373

Sequence: RRIRCRPPRLPRPRPRPELHPRP
- shrunken log2 fold change: 0.0685

Sequence: RRIRERPPRLPRPRPRPSGWPRP
- shrunken log2 fold change: -0.0693

Sequence: RRIRERPPRLPRPRPRPNQQPRP
- shrunken log2 fold change: -0.112

Sequence: RRIRDRPPRLPRPRPRPFASPRP
- shrunken log2 fold change: -0.0205

Sequence: RRIRVRPPRLPRPRPRPPHHPRP
- shrunken log2 fold change: 0.0413

Sequence: RRIRCRPPRLPRPRPRPENDPRP
- shrunken log2 fold change: -0.0268

Sequence: RRIRHRPPRLPRPRPRPSYQPRP
- shrunken log2 fold change: -1.14

Sequence: RRIRCRPPRLPRPRPRPWWNPRP
- shrunken log2 fold change: -0.752

Sequence: RRIRMRPPRLPRPRPRPPKWPRP
- shrunken log2 fold change: 0.315

Sequence: RRIRFRPPRLPRPRPRPPNNPRP
- shrunken log2 fold change: -0.445

Sequence: RRIRWRPPRLPRPRPRPNMLPRP
- shrunken log2 fold change: 0.0876

Sequence: RRIRERPPRLPRPRPRPRPEPRP
- shrunken log2 fold change: 0.314

Sequence: RRIRKRPPRLPRPRPRPRCLPRP
- shrunken log2 fold change: 0.226

Sequence: RRIRIRPPRLPRPRPRPLYIPRP
- shrunken log2 fold change: -0.695

Sequence: RRIRLRPPRLPRPRPRPIWIPRP
- shrunken log2 fold change: -0.134

Sequence: RRIRSRPPRLPRPRPRPITIPRP
- shrunken log2 fold change: -0.324

Sequence: RRIRNRPPRLPRPRPRPHTHPRP
- shrunken log2 fold change: -0.438

Sequence: RRIRHRPPRLPRPRPRPVDVPRP
- shrunken log2 fold change: -0.119

Sequence: RRIRYRPPRLPRPRPRPCNTPRP
- shrunken log2 fold change: -0.425

Sequence: RRIRNRPPRLPRPRPRPVWHPRP
- shrunken log2 fold change: -0.154

Sequence: RRIRTRPPRLPRPRPRPVEEPRP
- shrunken log2 fold change: -0.08

Sequence: RRIRYRPPRLPRPRPRPLLMPRP
- shrunken log2 fold change: -0.547

Sequence: RRIRARPPRLPRPRPRPNKGPRP
- shrunken log2 fold change: -0.0254

Sequence: RRIRVRPPRLPRPRPRPPFCPRP
- shrunken log2 fold change: 1.39

Sequence: RRIRKRPPRLPRPRPRPEVVPRP
- shrunken log2 fold change: 0.016

Sequence: RRIRWRPPRLPRPRPRPCWLPRP
- shrunken log2 fold change: -0.119

Sequence: RRIRSRPPRLPRPRPRPCWDPRP
- shrunken log2 fold change: -0.189

Sequence: RRIRPRPPRLPRPRPRPIPSPRP
- shrunken log2 fold change: 0.00576

Sequence: RRIRCRPPRLPRPRPRPRYMPRP
- shrunken log2 fold change: -0.402

Sequence: RRIRDRPPRLPRPRPRPTCNPRP
- shrunken log2 fold change: 0.13

Sequence: RRIRHRPPRLPRPRPRPNTQPRP
- shrunken log2 fold change: -0.248

Sequence: RRIRGRPPRLPRPRPRPMCWPRP
- shrunken log2 fold change: 0.859

Sequence: RRIRYRPPRLPRPRPRPNTLPRP
- shrunken log2 fold change: -0.704

Sequence: RRIRGRPPRLPRPRPRPRPPPRP
- shrunken log2 fold change: 1.19

Sequence: RRIRSRPPRLPRPRPRPAGCPRP
- shrunken log2 fold change: 0.459

Sequence: RRIRRRPPRLPRPRPRPVSPPRP
- shrunken log2 fold change: 0.0657

Sequence: RRIRARPPRLPRPRPRPPHCPRP
- shrunken log2 fold change: 0.521

Sequence: RRIRHRPPRLPRPRPRPRHRPRP
- shrunken log2 fold change: -0.029

Sequence: RRIRDRPPRLPRPRPRPEDRPRP
- shrunken log2 fold change: 0.0616

Sequence: RRIRLRPPRLPRPRPRPCLFPRP
- shrunken log2 fold change: -0.0955

Sequence: RRIRKRPPRLPRPRPRPSYHPRP
- shrunken log2 fold change: 2.31

Sequence: RRIRPRPPRLPRPRPRPCVWPRP
- shrunken log2 fold change: 0.0579

Sequence: RRIRSRPPRLPRPRPRPDTCPRP
- shrunken log2 fold change: -0.225

Sequence: RRIRARPPRLPRPRPRPDQYPRP
- shrunken log2 fold change: 0.151

Sequence: RRIRWRPPRLPRPRPRPIQLPRP
- shrunken log2 fold change: -0.304

Sequence: RRIRYRPPRLPRPRPRPHTAPRP
- shrunken log2 fold change: -0.57

Sequence: RRIRQRPPRLPRPRPRPGMEPRP
- shrunken log2 fold change: 0.0952

Sequence: RRIRARPPRLPRPRPRPYQIPRP
- shrunken log2 fold change: -0.385

Sequence: RRIRFRPPRLPRPRPRPCTIPRP
- shrunken log2 fold change: -0.15

Sequence: RRIRVRPPRLPRPRPRPMTFPRP
- shrunken log2 fold change: -0.0219

Sequence: RRIRSRPPRLPRPRPRPWHMPRP
- shrunken log2 fold change: 0.17

Sequence: RRIRRRPPRLPRPRPRPSHEPRP
- shrunken log2 fold change: -0.252

Sequence: RRIRHRPPRLPRPRPRPRIHPRP
- shrunken log2 fold change: -0.473

Sequence: RRIRRRPPRLPRPRPRPHALPRP
- shrunken log2 fold change: 0.0116

Sequence: RRIRTRPPRLPRPRPRPPGMPRP
- shrunken log2 fold change: 0.424

Sequence: RRIRFRPPRLPRPRPRPGIVPRP
- shrunken log2 fold change: -0.0228

Sequence: RRIRFRPPRLPRPRPRPLTPPRP
- shrunken log2 fold change: 0.0478

Sequence: RRIRMRPPRLPRPRPRPHNPPRP
- shrunken log2 fold change: -0.329

Sequence: RRIRFRPPRLPRPRPRPLFMPRP
- shrunken log2 fold change: -0.36

Sequence: RRIRHRPPRLPRPRPRPSRVPRP
- shrunken log2 fold change: -0.0634

Sequence: RRIRTRPPRLPRPRPRPPKFPRP
- shrunken log2 fold change: -0.025

Sequence: RRIRRRPPRLPRPRPRPCPSPRP
- shrunken log2 fold change: 0.0616

Sequence: RRIRFRPPRLPRPRPRPSNMPRP
- shrunken log2 fold change: -0.935

Sequence: RRIRTRPPRLPRPRPRPIHHPRP
- shrunken log2 fold change: -0.124

Sequence: RRIRDRPPRLPRPRPRPSVCPRP
- shrunken log2 fold change: 0.294

Sequence: RRIRKRPPRLPRPRPRPPCDPRP
- shrunken log2 fold change: 0.415

Sequence: RRIRFRPPRLPRPRPRPEMLPRP
- shrunken log2 fold change: 0.0583

Sequence: RRIRWRPPRLPRPRPRPHGWPRP
- shrunken log2 fold change: 0.213

Sequence: RRIRPRPPRLPRPRPRPMFTPRP
- shrunken log2 fold change: -0.178

Sequence: RRIRERPPRLPRPRPRPLDNPRP
- shrunken log2 fold change: -0.487

Sequence: RRIRMRPPRLPRPRPRPAEHPRP
- shrunken log2 fold change: -0.0575

Sequence: RRIRIRPPRLPRPRPRPGSKPRP
- shrunken log2 fold change: -0.0906

Sequence: RRIRTRPPRLPRPRPRPNWHPRP
- shrunken log2 fold change: -0.0773

Sequence: RRIRFRPPRLPRPRPRPIIDPRP
- shrunken log2 fold change: -1.61

Sequence: RRIRVRPPRLPRPRPRPTLTPRP
- shrunken log2 fold change: -0.0107

Sequence: RRIRDRPPRLPRPRPRPYRFPRP
- shrunken log2 fold change: -0.0178

Sequence: RRIRWRPPRLPRPRPRPGFSPRP
- shrunken log2 fold change: 0.138

Sequence: RRIRFRPPRLPRPRPRPFLYPRP
- shrunken log2 fold change: -1.04

Sequence: RRIRIRPPRLPRPRPRPVNVPRP
- shrunken log2 fold change: -0.404

Sequence: RRIRDRPPRLPRPRPRPDTSPRP
- shrunken log2 fold change: -0.114

Sequence: RRIRTRPPRLPRPRPRPVIVPRP
- shrunken log2 fold change: -0.314

Sequence: RRIRARPPRLPRPRPRPIDQPRP
- shrunken log2 fold change: 0.444

Sequence: RRIRSRPPRLPRPRPRPSHIPRP
- shrunken log2 fold change: -0.849

Sequence: RRIRERPPRLPRPRPRPETRPRP
- shrunken log2 fold change: -0.0227

Sequence: RRIRQRPPRLPRPRPRPEHIPRP
- shrunken log2 fold change: -0.0129

Sequence: RRIRHRPPRLPRPRPRPQLAPRP
- shrunken log2 fold change: 0.0733

Sequence: RRIRHRPPRLPRPRPRPWNHPRP
- shrunken log2 fold change: -0.0561

Sequence: RRIRFRPPRLPRPRPRPNVYPRP
- shrunken log2 fold change: -0.558

Sequence: RRIRDRPPRLPRPRPRPGAYPRP
- shrunken log2 fold change: 0.136

Sequence: RRIRGRPPRLPRPRPRPCSHPRP
- shrunken log2 fold change: -0.112

Sequence: RRIRWRPPRLPRPRPRPPFCPRP
- shrunken log2 fold change: 0.24

Sequence: RRIRDRPPRLPRPRPRPAKHPRP
- shrunken log2 fold change: 0.0985

Sequence: RRIRGRPPRLPRPRPRPFCGPRP
- shrunken log2 fold change: 0.224

Sequence: RRIRYRPPRLPRPRPRPTRTPRP
- shrunken log2 fold change: -0.0719

Sequence: RRIRGRPPRLPRPRPRPTCKPRP
- shrunken log2 fold change: 0.57

Sequence: RRIRGRPPRLPRPRPRPNNWPRP
- shrunken log2 fold change: 0.121

Sequence: RRIRVRPPRLPRPRPRPYEPPRP
- shrunken log2 fold change: -1.29

Sequence: RRIRGRPPRLPRPRPRPGDCPRP
- shrunken log2 fold change: 0.824

Sequence: RRIRARPPRLPRPRPRPFEVPRP
- shrunken log2 fold change: 0.455

Sequence: RRIRYRPPRLPRPRPRPMICPRP
- shrunken log2 fold change: -0.0731

Sequence: RRIRFRPPRLPRPRPRPYFRPRP
- shrunken log2 fold change: -0.134

Sequence: RRIRHRPPRLPRPRPRPCLCPRP
- shrunken log2 fold change: -0.268

Sequence: RRIRQRPPRLPRPRPRPFMKPRP
- shrunken log2 fold change: -0.0158

Sequence: RRIRTRPPRLPRPRPRPRDSPRP
- shrunken log2 fold change: 0.538

Sequence: RRIRRRPPRLPRPRPRPNDAPRP
- shrunken log2 fold change: -0.0546

Sequence: RRIRPRPPRLPRPRPRPLQSPRP
- shrunken log2 fold change: 0.0308

Sequence: RRIRQRPPRLPRPRPRPTTFPRP
- shrunken log2 fold change: -0.485

Sequence: RRIRTRPPRLPRPRPRPRHHPRP
- shrunken log2 fold change: -0.174

Sequence: RRIRFRPPRLPRPRPRPDPEPRP
- shrunken log2 fold change: -0.0327

Sequence: RRIRDRPPRLPRPRPRPTEDPRP
- shrunken log2 fold change: -0.0699

Sequence: RRIRVRPPRLPRPRPRPFRSPRP
- shrunken log2 fold change: -0.267

Sequence: RRIRFRPPRLPRPRPRPTPDPRP
- shrunken log2 fold change: 0.485

Sequence: RRIRPRPPRLPRPRPRPKRKPRP
- shrunken log2 fold change: 0.238

Sequence: RRIRYRPPRLPRPRPRPIHYPRP
- shrunken log2 fold change: -0.655

Sequence: RRIRRRPPRLPRPRPRPVLCPRP
- shrunken log2 fold change: 0.569

Sequence: RRIRQRPPRLPRPRPRPDFRPRP
- shrunken log2 fold change: 0.0259

Sequence: RRIRKRPPRLPRPRPRPLTVPRP
- shrunken log2 fold change: 0.344

Sequence: RRIRIRPPRLPRPRPRPFKYPRP
- shrunken log2 fold change: -0.0899

Sequence: RRIRYRPPRLPRPRPRPKWCPRP
- shrunken log2 fold change: -0.00875

Sequence: RRIRQRPPRLPRPRPRPSWLPRP
- shrunken log2 fold change: -0.213

From the supplement of paper PMC9112550, “Optimization of the antimicrobial peptide Bac7 by deep mutational scanning” (BMC Biology, 2022)
